According to the supplement of paper PMC10567573:

B1: PHTF1 (parent)
chain: SRHLNSQVKKTTTRWCHIVRDSDS
B2: FUT8 (parent)
chain: YAHQPRTADEIPMEPGDIIGVAGN

Variants of: B1
Assay: protein stability index of a GFP-peptide fusion (GPS, HEK-293T) (PSI 1-6); higher = more stable
Details: c terminus: a fixed tail appended
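Also: lentivirally expressed fusions sorted by FACS into six bins by GFP to DsRed ratio, PSI derived from sequencing read proportions per bin multiplied by bin number.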

Protein stability index, by site and new letter:
R20: C 1.39 | D 2.27 | E 2.75 | F 2.37 | G 1.76 | H 2.29 | I 1.18 | K 1.25 | L 2.17 | M 1.69 | N 1.45 | P 2.3 | Q 2.09 | T 2.61 | V 3.11 | W 1.57 | Y 2.4
D21: A 2.5 | E 1.5 | G 1.7 | H 1.44 | K 2.39 | L 3.98 | M 1.82 | P 2.57 | R 1.55 | S 2.14 | T 2.79 | V 1.37 | W 2.23 | Y 1.69
S22: A 1.82 | C 1.73 | D 1.72 | E 1.87 | F 1.86 | I 1.45 | K 2.84 | L 1.78 | M 2.15 | N 1.48 | P 1.77 | Q 2.65 | T 1.94 | W 2.08 | Y 1.94
D23: A 2.59 | C 1.53 | E 1.99 | F 2.65 | G 1.56 | H 2.34 | I 2.16 | K 1.74 | L 1.75 | M 2.19 | N 1.99 | P 2.78 | Q 1.84 | R 2.8 | S 3.1 | T 1.78 | V 1.62 | Y 1.88
S24: C 2 | D 2.75 | E 1.9 | F 2.04 | G 2.13 | H 2.02 | I 1.36 | K 1.92 | L 1.75 | M 2.21 | N 2.66 | P 2.01 | Q 2.02 | R 1.37 | T 2.99 | V 1.88 | W 1.79 | Y 1.53

Variants of: B2
Assay: as above
Details: c terminus: a fixed tail appended

Protein stability index: each site, then its substitutions
Y1: A 5.22 | C 3.93 | D 5.19 | E 4.92 | F 3.6 | G 5.17 | H 5.37 | I 5.16 | K 5 | L 4.75 | M 5.19 | N 4.75 | P 5.26 | Q 5.12 | R 4.84 | S 4.88 | T 5.16 | V 4.28 | W 4.52
A2: C 4.03 | D 5.06 | E 5.05 | F 4.45 | G 4.69 | H 3.59 | I 3.15 | K 4.51 | L 4.67 | M 4.38 | N 4.92 | P 4.43 | Q 4.09 | R 4.56 | S 4.53 | T 4.49 | V 2.39 | W 3.63 | Y 4.3
H3: A 4.56 | C 3.62 | D 4.78 | E 4.87 | F 3.66 | G 3.36 | I 4.2 | K 4.34 | L 4.77 | M 3.99 | N 4.43 | P 2.92 | Q 4.39 | R 3.44 | S 4.36 | T 4.25 | V 4.46 | W 3.11 | Y 3.45
Q4: A 4.07 | C 3.81 | D 4.36 | E 4.61 | F 2.77 | G 3.52 | H 3.92 | I 3.54 | K 2.85 | L 4.26 | M 3.73 | N 4.07 | P 3.52 | R 3.06 | S 3.8 | T 3.72 | V 3.5 | W 1.98 | Y 3.66
P5: A 4.23 | C 3.72 | D 4.93 | E 4.62 | F 3.11 | G 3.96 | H 3.85 | I 3.4 | K 3.61
